Laboratory results taken from the supplement of paper PMC10567573.

B1: MATN2 (parent)
chain: VNVPGSFVCQCYSGYALAEDGKRC
B2: SLC6A17 (parent)
chain: KAVEEELDAEDRPAWNSKLQYILA

Variants of: B1
Assay: protein stability index of a GFP-peptide fusion (GPS, HEK-293T) (PSI 1-6); higher = more stable
Details: c terminus: a fixed tail appended
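Also: lentivirally expressed fusions sorted by FACS into six bins by GFP to DsRed ratio, PSI derived from sequencing read proportions per bin multiplied by bin number.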

| Variant | protein stability index |
| --- | --- |
| E19R | 1.51 |
| E19D | 1.76 |
| E19G | 2.83 |
| E19P | 1.54 |
| E19K | 2 |
| E19S | 1.43 |
| E19F | 1.17 |
| E19W | 1.86 |
| E19C | 3.15 |
| E19V | 2.29 |
| E19Y | 1.7 |
| E19Q | 1.75 |
| E19N | 2.79 |
| E19T | 1.75 |
| E19A | 1.93 |
| E19I | 2.77 |
| E19M | 2.33 |
| E19H | 3.03 |
| Y15S | 3.02 |
| Y15Q | 1.98 |
| Y15C | 2.77 |
| Y15H | 1.91 |
| Y15N | 2.19 |
| Y15R | 2 |
| Y15G | 2.14 |
| Y15F | 2.38 |

| Variant | protein stability index |
| --- | --- |
| Y15I | 2.23 |
| Y15K | 1.98 |
| Y15D | 2.03 |
| Y15T | 2.33 |
| Y15L | 2.19 |
| Y15M | 2.19 |
| Y15A | 2.56 |
| Y15E | 2.5 |
| Y15P | 2.81 |
| Y15W | 1.65 |
| D20Y | 1.05 |
| D20S | 2.02 |
| D20C | 3.42 |
| D20R | 1.58 |
| D20W | 1.57 |
| D20P | 2.42 |
| D20Q | 1.37 |
| D20F | 2.57 |
| D20K | 1.65 |
| D20M | 1.72 |
| D20L | 1.11 |
| D20T | 2.12 |
| D20N | 1.34 |
| D20G | 1.48 |
| D20I | 2.81 |
| D20A | 1.9 |

| Variant | protein stability index |
| --- | --- |
| D20E | 1.85 |
| D20H | 2.1 |
| D20V | 1.87 |
| C9Y | 2.2 |
| C9W | 2.21 |
| C9Q | 2.97 |
| C9S | 3.15 |
| C9V | 2.32 |
| C9P | 3.06 |
| C9L | 2.05 |
| C9M | 2.28 |
| C9R | 2.69 |
| C9N | 3.12 |
| C9T | 2.52 |
| G21A | 2 |
| G21D | 2.43 |
| G21S | 2.36 |
| G21T | 3.02 |
| G21L | 2.7 |
| G21C | 4.22 |
| G21K | 2.03 |
| G21F | 1.58 |
| G21R | 2.08 |
| G21E | 1.84 |
| G21M | 3.7 |
| G21I | 1.99 |

| Variant | protein stability index |
| --- | --- |
| G21Q | 2.75 |
| G21H | 2.41 |
| G21N | 1.93 |
| G21P | 2.38 |
| G21V | 1.88 |
| G21Y | 2.18 |
| G21W | 1.3 |
| L17K | 1.81 |
| L17G | 2.04 |
| L17Q | 2.26 |
| L17T | 1.75 |
| L17P | 2.46 |
| L17M | 1.81 |
| L17I | 1.67 |
| L17Y | 2.44 |
| L17V | 2.3 |
| L17C | 3.36 |
| L17H | 2.27 |
| L17N | 1.91 |
| L17D | 2.51 |
| L17F | 1.03 |
| L17A | 2.85 |
| L17S | 1.57 |
| L17E | 2.58 |
| L17R | 2.54 |
| L17W | 1.92 |

| Variant | protein stability index |
| --- | --- |
| S13K | 1.58 |
| S13R | 1.85 |
| S13V | 1.32 |
| S13N | 2.45 |
| S13D | 2.17 |
| S13L | 2.52 |
| S13C | 3.25 |
| S13A | 2.39 |
| S13P | 2.47 |
| S13Q | 1.5 |
| S13G | 2.33 |
| S13T | 2.34 |
| S13W | 3.15 |
| S13Y | 1.9 |
| S13E | 2.1 |
| S13I | 1.62 |
| C11Y | 2.1 |
| C11R | 3.32 |
| C11N | 2.97 |
| C11H | 2.65 |
| C11F | 2.48 |
| C11P | 2.42 |
| C11A | 3.12 |
| C11D | 4.08 |
| C11W | 2.05 |
| C11T | 2.43 |

| Variant | protein stability index |
| --- | --- |
| C11I | 1.72 |
| C11Q | 2.94 |
| C11G | 2.75 |
| C11V | 1.7 |
| C11E | 3.27 |
| C11L | 2.19 |
| C11K | 2.87 |
| C11M | 1.86 |
| R23H | 1.62 |
| R23D | 2.78 |
| R23I | 1.67 |
| R23T | 2.06 |
| R23Q | 3.67 |
| R23V | 2.41 |
| R23M | 2.32 |
| R23K | 2.99 |
| R23E | 2.78 |
| R23S | 2.35 |
| R23F | 1.69 |
| R23P | 2.07 |
| R23N | 2.23 |
| R23G | 2.56 |
| R23A | 2.16 |
| R23Y | 1.83 |
| R23W | 1.64 |
| R23L | 2.62 |

| Variant | protein stability index |
| --- | --- |
| R23C | 2.74 |
| A18C | 3.33 |
| A18M | 1.34 |
| A18G | 1.82 |
| A18N | 2.09 |
| A18H | 2.55 |
| A18R | 2.38 |
| A18P | 1.65 |
| A18F | 2.48 |
| A18I | 1.64 |
| A18Y | 2.84 |
| A18Q | 2.38 |
| A18T | 2 |
| A18S | 1.93 |
| A18D | 2.36 |
| A18L | 2.32 |
| A18K | 1.73 |
| A18E | 2.56 |
| G14A | 2.37 |
| G14D | 1.95 |
| G14R | 2.81 |
| G14W | 1.93 |
| G14S | 2.44 |
| G14T | 1.69 |
| G14Y | 1.86 |
| G14L | 3.03 |

| Variant | protein stability index |
| --- | --- |
| G14P | 1.78 |
| G14K | 2.7 |
| G14N | 1.56 |
| G14Q | 1.83 |
| G14I | 3.06 |
| G14F | 2.6 |
| G14M | 2.52 |
| G14C | 2.16 |
| G14E | 2.91 |
| G14H | 2.37 |
| Y12V | 2.13 |
| Y12W | 2.62 |
| Y12T | 2.95 |
| Y12E | 3.47 |
| Y12S | 2.64 |
| Y12Q | 1.76 |
| Y12R | 2 |
| Y12I | 1.36 |
| Y12K | 1.96 |
| Y12A | 2.73 |
| Y12D | 4.36 |
| Y12P | 3.02 |
| Y12H | 2.24 |
| Y12L | 2.21 |
| Y12C | 2.87 |
| Y12N | 1.98 |

| Variant | protein stability index |
| --- | --- |
| Y12F | 2.54 |
| Q10D | 2.47 |
| Q10A | 1.56 |
| Q10Y | 1.97 |
| Q10T | 2.52 |
| Q10H | 1.78 |
| Q10V | 2.08 |
| Q10S | 2.29 |
| Q10W | 2.32 |
| Q10K | 1.7 |
| Q10G | 1.65 |
| Q10R | 2.01 |
| Q10P | 2.15 |
| Q10E | 1.55 |
| Q10M | 2.88 |
| Q10F | 2.64 |
| Q10C | 1.7 |
| Q10N | 2.31 |
| Q10L | 2.46 |
| K22Y | 1.47 |
| K22M | 1.23 |
| K22C | 3.96 |
| K22L | 1.17 |
| K22P | 2.08 |
| K22T | 2.6 |
| K22R | 1.08 |

| Variant | protein stability index |
| --- | --- |
| K22A | 2.6 |
| K22W | 1.9 |
| K22Q | 1.49 |
| K22I | 1.5 |
| K22E | 2.03 |
| K22F | 1.81 |
| K22H | 2.68 |
| K22S | 1.7 |
| K22G | 2.43 |
| K22N | 3.34 |
| C24A | 1.73 |
| C24D | 2.32 |
| C24V | 3.76 |
| C24Q | 2.12 |
| C24R | 1.25 |
| C24H | 2.9 |
| C24F | 1.83 |
| C24K | 2.5 |
| C24Y | 2.41 |
| C24E | 1.94 |
| C24L | 1.86 |
| C24M | 2.06 |
| C24T | 2.13 |
| C24N | 2.72 |
| C24I | 2.22 |
| C24G | 2.18 |

| Variant | protein stability index |
| --- | --- |
| C24S | 2.14 |
| A16V | 1.62 |
| A16Y | 1.1 |
| A16G | 2.58 |
| A16K | 1.91 |
| A16M | 1.79 |
| A16F | 2.42 |
| A16T | 1.93 |
| A16D | 2.17 |
| A16N | 1.45 |
| A16S | 1.84 |
| A16P | 1.49 |
| A16W | 1.05 |
| A16R | 1.52 |
| A16C | 3.35 |
| A16I | 2.11 |
| A16Q | 1.97 |
| A16H | 2.77 |
| A16L | 1.73 |

Variants of: B2
Assay: as above
Details: c terminus: a fixed tail appended

| Variant | protein stability index |
| --- | --- |
| S17I | 1.83 |
| L19T | 3.83 |
| L19C | 3.56 |
| L19A | 3.8 |
| L19E | 4.27 |
| L23T | 3.91 |
| D8Q | 2.25 |
| K18Q | 3.22 |
| K18T | 3.05 |
| K18S | 3.07 |
| K18M | 2.27 |
| K18C | 3.19 |
| L7T | 3.1 |
| A2Q | 3 |
| A2N | 2.61 |
| K1S | 3.24 |
| K1Q | 2.82 |
| K1N | 3.17 |
| K1F | 2.71 |
| A24C | 2.46 |
| V3R | 3.14 |
| V3P | 2.58 |
| V3F | 2.29 |
| V3L | 2.31 |
| E5Q | 1.96 |
| I22H | 4.5 |
| I22L | 2.83 |
| I22R | 4.15 |

| Variant | protein stability index |
| --- | --- |
| I22P | 4.44 |
| I22C | 3.13 |
| Q20I | 1.57 |
| Q20W | 1.56 |
| Q20F | 1.9 |
| Q20V | 2.13 |
| Q20E | 2.89 |
| Y21M | 3.4 |
| D11W | 2.16 |
| D11G | 3.55 |
| D11Q | 2.12 |
| P13W | 2.88 |
| P13G | 2.71 |
| P13H | 2.21 |
| R12Q | 3.15 |
| W15P | 3.68 |
| W15K | 3.99 |
| W15S | 3.92 |
| E4A | 2.79 |
| E4W | 1.4 |
| E10T | 2.44 |
| E10I | 1.86 |
| A14F | 2.18 |
| A14P | 2.46 |
| A14H | 2.57 |
| A14V | 2.38 |
| A14G | 2.35 |
